Results: PMC10923007

Key:
[1] = target: CUL2^AMCA•RBX1 preassembled with VBC (UniProt Q13617); test: FRET or BRET
[2] = target: ^GSTCAND1 from bacterial cells (UniProt Q86VP6); test: pull-down
[3] = target: ^GSTCAND1 from insect cells (UniProt Q86VP6); test: pull-down
^GSTCAND1 from insect cells, sequence (Q86VP6 whole entry): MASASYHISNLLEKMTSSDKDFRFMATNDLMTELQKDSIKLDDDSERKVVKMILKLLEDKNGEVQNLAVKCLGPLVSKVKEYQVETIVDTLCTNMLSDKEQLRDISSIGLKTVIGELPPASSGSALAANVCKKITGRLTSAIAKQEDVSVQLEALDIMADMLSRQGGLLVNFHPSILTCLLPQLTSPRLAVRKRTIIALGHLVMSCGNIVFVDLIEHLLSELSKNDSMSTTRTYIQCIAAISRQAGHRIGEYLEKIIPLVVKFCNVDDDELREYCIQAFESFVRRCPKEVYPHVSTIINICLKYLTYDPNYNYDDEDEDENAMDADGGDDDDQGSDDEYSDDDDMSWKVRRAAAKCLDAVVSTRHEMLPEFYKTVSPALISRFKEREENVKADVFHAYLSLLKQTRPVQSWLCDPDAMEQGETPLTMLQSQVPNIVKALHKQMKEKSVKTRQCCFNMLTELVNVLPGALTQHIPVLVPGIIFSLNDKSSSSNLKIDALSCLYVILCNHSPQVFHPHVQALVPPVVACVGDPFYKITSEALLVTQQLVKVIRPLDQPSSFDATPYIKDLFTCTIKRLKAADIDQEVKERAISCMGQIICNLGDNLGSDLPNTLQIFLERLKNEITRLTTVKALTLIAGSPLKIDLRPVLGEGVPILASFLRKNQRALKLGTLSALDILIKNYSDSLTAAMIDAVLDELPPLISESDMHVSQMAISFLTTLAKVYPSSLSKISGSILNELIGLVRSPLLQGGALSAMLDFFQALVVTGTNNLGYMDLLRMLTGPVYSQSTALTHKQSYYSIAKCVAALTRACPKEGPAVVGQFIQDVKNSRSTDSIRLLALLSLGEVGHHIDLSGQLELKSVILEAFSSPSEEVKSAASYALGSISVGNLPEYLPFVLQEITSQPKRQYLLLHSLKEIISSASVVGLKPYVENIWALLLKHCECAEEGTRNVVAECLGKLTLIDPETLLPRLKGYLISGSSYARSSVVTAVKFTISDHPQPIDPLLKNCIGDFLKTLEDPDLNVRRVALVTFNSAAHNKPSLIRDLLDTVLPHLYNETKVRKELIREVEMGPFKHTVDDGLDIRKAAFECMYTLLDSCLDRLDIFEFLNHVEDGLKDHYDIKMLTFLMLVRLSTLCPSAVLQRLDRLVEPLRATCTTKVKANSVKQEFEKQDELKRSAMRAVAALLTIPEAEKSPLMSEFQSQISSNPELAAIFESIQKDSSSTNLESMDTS

RBX1•^StrepIICUL2^FL, sequence (Q13617 whole entry): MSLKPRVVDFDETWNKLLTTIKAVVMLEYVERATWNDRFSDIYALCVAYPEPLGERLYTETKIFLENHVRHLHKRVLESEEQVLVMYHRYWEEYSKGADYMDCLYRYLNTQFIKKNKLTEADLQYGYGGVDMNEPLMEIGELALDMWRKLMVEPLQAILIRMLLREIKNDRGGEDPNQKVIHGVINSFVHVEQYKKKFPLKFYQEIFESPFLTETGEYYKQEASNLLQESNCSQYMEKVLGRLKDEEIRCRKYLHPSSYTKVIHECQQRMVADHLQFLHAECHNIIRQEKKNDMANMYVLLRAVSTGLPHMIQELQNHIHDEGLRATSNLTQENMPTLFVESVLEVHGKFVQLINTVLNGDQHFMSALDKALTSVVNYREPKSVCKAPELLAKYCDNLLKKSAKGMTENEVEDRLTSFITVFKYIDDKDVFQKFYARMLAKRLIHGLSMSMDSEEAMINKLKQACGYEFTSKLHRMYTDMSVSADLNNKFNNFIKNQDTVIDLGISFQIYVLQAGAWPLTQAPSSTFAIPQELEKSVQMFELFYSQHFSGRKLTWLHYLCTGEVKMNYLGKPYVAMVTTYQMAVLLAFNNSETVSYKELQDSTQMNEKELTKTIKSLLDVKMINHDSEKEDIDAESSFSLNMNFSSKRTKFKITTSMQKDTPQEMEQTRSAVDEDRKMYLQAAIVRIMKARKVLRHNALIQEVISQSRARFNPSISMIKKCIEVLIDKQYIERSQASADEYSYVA
RBX1•^StrepIICUL2^FL, sequence (P62877 whole entry): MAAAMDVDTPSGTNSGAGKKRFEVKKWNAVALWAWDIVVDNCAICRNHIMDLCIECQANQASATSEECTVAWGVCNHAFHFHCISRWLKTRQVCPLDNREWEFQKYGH
^GSTCAND1 from bacterial cells, sequence (Q86VP6 whole entry): as the sequence (Q86VP6 whole entry) above
^FlAsHCAND1 from insect cells, sequence (Q86VP6 whole entry): as above

kon [1]	t1/2 of dissociation [2]	t1/2 of dissociation [3]	Substance
9.8e+07 M⁻¹ s⁻¹			^FlAsHCAND1 from insect cells (from UniProt Q86VP6 1-1230) (natural protein)
	3.5 min	16 min	RBX1•^StrepIICUL2^FL (from UniProt Q13617 1-745; P62877 1-108) (complex)
